{"source": "paper PMC3344845", "about": "“Structure of Bradavidin – C-Terminal Residues Act as Intrinsic Ligands” (PLoS ONE, 2012)", "key": {"[1]": {"target": "core-bradavidin (Bradyrhizobium japonicum)", "experiment": "ITC; core-bradavidin in the cell, ligand (Brad-tag or Brad-tag–EGFP) in the syringe, 15°C, 50 mM sodium phosphate pH 7.0, 100 mM NaCl; n is the stoichiometry per subunit"}, "[2]": {"target": "core-bradavidin (Bradyrhizobium japonicum)", "experiment": "ITC; core-bradavidin in the cell, ligand (Brad-tag or Brad-tag–EGFP) in the syringe, 15°C, 50 mM sodium phosphate pH 7.0, 100 mM NaCl; n is the stoichiometry per subunit", "remark": "listed apart in the source"}, "[3]": {"target": "core-bradavidin (Bradyrhizobium japonicum)", "experiment": "ITC; core-bradavidin, avidin, streptavidin or rhizavidin in the cell, Brad-tag in the syringe, 40°C, 50 mM sodium phosphate pH 7.0, 100 mM NaCl; n is the stoichiometry per subunit"}}}
{"binder": "SEKLSNTK", "note": "[Brad-tag (synthetic peptide SEKLSNTK)]", "values": [{"measurement": "Kd", "setting": "[1]", "result": 25, "unit": "µM"}, {"measurement": "dH", "setting": "[1]", "result": 1.7, "unit": "kcal mol^–1"}, {"measurement": "stoichiometry N", "setting": "[1]", "result": 0.94}, {"measurement": "dH", "setting": "[2]", "result": 1.1, "unit": "kcal/mol"}, {"measurement": "Kd", "setting": "[3]", "result": 26, "unit": "µM"}, {"measurement": "dH", "setting": "[3]", "result": -4.4, "unit": "kcal mol^–1"}, {"measurement": "stoichiometry N", "setting": "[3]", "result": 0.62}]}
